According to publication PMC4870115 (Biochemistry, 2016):

Biological target: the molecule itself
Test: crystal structure

B1: ToxA of Burkholderia glumae (enzyme)
chain: MSTTARYDSIGGLFEDFTQSAAQRAIEVRTIFHMIGDVSGKSVLDLACGFGFFGREIYRRGAAKVVGVDISEKMIELAREESRKYGDPLEFHVRDVANMEPLGQFDLVNAAWLFNYADSVENLRKMFKVVRASLKPDGKLVAYTVDPDFSLAKGNFAKYGVNVLNERAWGPGYRHDAEFVTDPPSQFSFYRWSRADYESAIADAGFSHFEWQKPLLEADDIATHPPGFWDVFQNNCLQTGLVCKP
stoichiometry N: 4
